Data from PMC12738837, “Structure of Trypanosoma peroxisomal import complex unveils conformational heterogeneity” (Nature Communications, 2025).
Numbering of substitutions follows the chain as printed. “And” between values parts separate entries of the source, which are not always exact repeats. Equal values may be shown once.

B1: full length Pex5 (residues 1–666) (receptor, Trypanosoma cruzi, UniProt Q4DPQ9 1-668, looked up)
chain: MDCSTGAAIGQQFAKDAFHMHGGVGVGPTGNPEHDVLMNEMMMVQTPTGPAGEWTHQFAAYQGKQQQQHPQELAMRHQQNDALMLRQQQEMEEAFCTLCAAHPHSHAHSHAHSHQPQGLVGPAMMGPQIMPPMMFGPGSGGFMMGTPPMMPYASMKFAGDAAMAAANNTTMTQGATATSTTSVQQEQQQQQSSDNGWVEKLRDAEWAQDYSDAQVFTLEGQSEQTMEEHAKNSEFYQFMDKIRSKELLIDEETGQLVQGPGPDPDAPEDAEYLKEWAAAEGLNMPPGFFEHMMQRPQGNNEQAEGRLFDGSNDALMDDGALDNAADVEEWAREYAEAQEQLQRVQNETNYPFEPNNPYMYHDKPMEEGIAMLQLANMAEAALAFEAVCQKEPENVEAWRRLGTTQAENEKDCLAIIALNHARMLDPKDIAVHAALAVSHTNEHNVGAALQSLRSWLLSQPQYEHLGLVDLQEVAADEGLDEVPEENYFFAAPSEYRDCCTLLYAAVEMNPNDPQLHASLGVLHNLSHRFDEAAKNFRRAVELRPDDAHTWNKLGATLANGNRPQEALEAYNRALDINPGYVRVMYNMAVSYSNMAQYPLAAKHITRAIALQAGGTNPQGEGSRIATRGLWDLLRMTLNLMDRSDLVEASWQQDLTPFLKEFGLEDMAV
notes: Pex5, Trypanosoma cruzi, full length, residues 1-666, GenBank PBJ69826.1; Contains three Wxxx(F/Y) motifs; source: E. coli BL21 (DE3), purified (Ni-NTA, SEC)
B2: glycosomal malate dehydrogenase (MDH, residues 1–323) (enzyme, Trypanosoma cruzi, UniProt Q4DRD8 1-323, looked up)
chain: MVNVAVIGAAGGIGQSLSLLLLRELPFGSTLSLYDVVGAPGVAADLSHIDRAGITVKHAAGKLPPVPRDPALTELAEGVDVFVIVAGVPRKPGMTRDDLFNVNAGIVMDLVLTCASVSPNACFCIVTNPVNSTTPIAAQTLRKIGVYNKNKLLGVSLLDGLRATRFINNARHPLVVPYVPVVGGHSDVTIVPLYSQIPGPLPDESTLKEIRKRVQVAGTEVVKAKAGRGSATLSMAEAGARFTMHVVKALMGLDTPMVYAYVDTDGEHECPFLAMPVVLGKNGIERRLPIGPITTVEKEMLEEAVGVVKKNIAKGETFARSKL
notes: glycosomal malate dehydrogenase (MDH), Trypanosoma cruzi, residues 1-323, UniProt Q4DRD8; Tetramer (two dimers related by D2 symmetry) by cryo-EM; also called cargo; MDH tetramer; source: E. coli BL21 (DE3), purified (Ni-NTA, SEC)

Tests used:
[1] = target: B2; test: cryo-EM structure; ternary complex: purified MDH (tetramer), full-length Pex5 and Pex14NTD mixed at 1:4:12, overnight at 4 °C, separated on Superose6 10/300, vitrified at ~0.75 mg/mL; no cross-linking; MDH alone solved from the same dataset; conditions: both partners purified
[2] = target: 6-FAM labeled PTS1 peptide; test: fluorescence polarisation
[3] = target: the molecule itself; test: cryo-EM structure; ternary complex: purified MDH (tetramer), full-length Pex5 and Pex14NTD mixed at 1:4:12, overnight at 4 °C, separated on Superose6 10/300, vitrified at ~0.75 mg/mL; no cross-linking; MDH alone solved from the same dataset
[4] = target: Pex5_(eTPR) (residues 314–666), truncated Pex5 containing an extended TPR domain with a single Wxxx(F/Y) motif (Trypanosoma cruzi, UniProt Q4DPQ9 316-668); test: ITC; Pex5_(eTPR) (250 μM) injected into MDH (25 μM) in the cell; 100 mM Hepes, 150 mM NaCl, 2 mM β-mercaptoethanol, pH 7.5; 25 °C; conditions: both partners purified
[5] = target: T1, Pex5_(eTPR)(P490R) (Trypanosoma cruzi, UniProt Q4DPQ9 316-668, P490R); test: as above; conditions: both partners purified
T1 construct: source: E. coli BL21 (DE3), purified as wild type (Ni-NTA, SEC)
T1 sequence: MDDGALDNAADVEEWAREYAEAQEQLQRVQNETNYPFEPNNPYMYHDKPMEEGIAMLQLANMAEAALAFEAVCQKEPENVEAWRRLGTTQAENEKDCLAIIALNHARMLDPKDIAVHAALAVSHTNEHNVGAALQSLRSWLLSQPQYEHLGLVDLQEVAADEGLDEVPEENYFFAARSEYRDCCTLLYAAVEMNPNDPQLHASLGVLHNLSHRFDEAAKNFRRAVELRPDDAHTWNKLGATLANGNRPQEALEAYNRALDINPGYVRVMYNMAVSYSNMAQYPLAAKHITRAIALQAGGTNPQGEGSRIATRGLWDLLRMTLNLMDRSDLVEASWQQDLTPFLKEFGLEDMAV

[6] = target: T2, Pex5_(eTPR)(R625A, D629A) (Trypanosoma cruzi, UniProt Q4DPQ9 316-668, R625A | D629A); test: as above; conditions: both partners purified
T2 construct: source: E. coli BL21 (DE3), purified as wild type (Ni-NTA, SEC)
T2 sequence: T1 sequence with R177P, R312A, D316A

Binder | stoichiometry N [1] | Kd [2] [nM] | stoichiometry N [3] | Kd [4] [nM] | Kd [5] [nM] | Kd [6] [nM]
B1 | 1 Pex5 per MDH tetramer and 2 Pex5 per MDH tetramer | 88 | – | – | – | –
B2 | – | – | 4 | 435 ± 80 | 1390 ± 226 | 453 ± 64
